Experimental data as given in US20070178531A1 (BIOCHECK, published 2007).

Tests used:
Human Id2: Histidine [1] = molecular target: T1, Human Id2: Histidine (human, UniProt Q02363 1-134, limits assumed); assay: ELISA, Ab 0 µg/ml (blank)
T1 construct: Fusion protein made in E. coli from vector pGW07; also called h-Id2: His; not shown: His tag
T1 sequence (looked up): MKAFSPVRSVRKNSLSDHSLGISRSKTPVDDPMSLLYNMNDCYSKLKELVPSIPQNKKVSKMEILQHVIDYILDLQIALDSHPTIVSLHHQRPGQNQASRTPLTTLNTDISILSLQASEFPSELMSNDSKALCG

Human Id1: Histidine [2] = molecular target: T2, Human Id1: Histidine (human, UniProt P41134 1-155, limits assumed); assay: ELISA, Ab 0 µg/ml (blank)
T2 construct: Fusion protein made in E. coli from vector pGW07; also called h-Id1: his; not shown: His tag
T2 sequence (looked up): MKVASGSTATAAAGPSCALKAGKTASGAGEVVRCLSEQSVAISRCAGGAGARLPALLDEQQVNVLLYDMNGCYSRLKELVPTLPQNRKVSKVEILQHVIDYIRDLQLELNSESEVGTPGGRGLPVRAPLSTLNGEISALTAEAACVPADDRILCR

Human Id3: Histidine [3] = molecular target: T3, Human Id3: Histidine (human, UniProt Q02535 1-119 at identity 1.00)); assay: ELISA, Ab 0 µg/ml (blank)
T3 construct: Fusion protein made in E. coli from vector pGW07; also called h-Id3: His; Human Id3 (coated wells); not shown: His tag
T3 chain: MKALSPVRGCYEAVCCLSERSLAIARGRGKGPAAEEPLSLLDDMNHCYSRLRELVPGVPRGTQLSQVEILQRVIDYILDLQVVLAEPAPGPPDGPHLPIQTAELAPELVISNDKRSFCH

Mouse Id2: Histidine [4] = molecular target: T4, Mouse Id2: Histidine (mouse, UniProt P41136 1-134, limits assumed); assay: ELISA, Ab 0 µg/ml (blank)
T4 construct: Fusion protein made in E. coli from vector pGW07; also called m-Id2: His; not shown: His tag
T4 sequence (looked up): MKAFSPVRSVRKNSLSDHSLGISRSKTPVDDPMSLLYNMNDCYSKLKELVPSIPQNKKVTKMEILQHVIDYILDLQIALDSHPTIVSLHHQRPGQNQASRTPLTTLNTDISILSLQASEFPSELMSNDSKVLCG

Mouse Id1: Histidine [5] = molecular target: T5, Mouse Id1: Histidine (mouse, UniProt P20067-2 1-148, limits assumed); assay: ELISA, Ab 0 µg/ml (blank)
T5 construct: Fusion protein made in E. coli from vector pGW07; also called m-Id1-His; not shown: His tag
T5 sequence (looked up): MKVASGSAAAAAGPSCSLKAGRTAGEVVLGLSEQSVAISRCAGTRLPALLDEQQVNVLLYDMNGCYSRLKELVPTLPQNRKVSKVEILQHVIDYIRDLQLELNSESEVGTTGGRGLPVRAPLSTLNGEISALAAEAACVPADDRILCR

Mouse Id3: Histidine [6] = molecular target: T6, Mouse Id3: Histidine (mouse, UniProt P41133 1-119); assay: ELISA, Ab 0 µg/ml (blank)
T6 construct: Fusion protein made in E. coli from vector pGW07; also called m-Id3: His; Mouse Id3 (coated wells); not shown: His tag
T6 sequence: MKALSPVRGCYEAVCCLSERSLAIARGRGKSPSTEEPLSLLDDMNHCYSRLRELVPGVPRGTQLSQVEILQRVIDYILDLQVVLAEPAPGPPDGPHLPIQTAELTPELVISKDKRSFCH

Human Id2: Histidine [7] = molecular target: T1, Human Id2: Histidine; assay: ELISA, Ab 0.025 µg/ml
Protocol: (§1) 1. Dispense 100 μL of antibody diluent, diluted rabbit monoclonal human Id3, and mouse/human Id3 hybridoma supernatants into appropriate wells. […] 2. Incubate at room temperature with mechanical shaking at 750 rpm for 90 minutes. [0165] 3. Remove the incubation mixture by flicking plate content into an appropriate waste container followed by rinsing the wells 5 times with distilled water. [0166] 4. Strike the wells sharply onto absorbent paper or paper towels to remove all residual water droplets. [0167] 5. Dispense 100 μL of 1:50,000 Goat Anti-Rabbit IgG-HRP Conjugate Reagent into each well. Gently mix for 5 seconds. [0168] 6. Incubate at room temperature with mechanical shaking at 750 rpm for 90 minutes. [0169] 7. Repeat procedures 3 and 4. [0170] 8. Dispense 100 μL of TMB Reagent into each well. Gently mix for 5 seconds. [0171] 9. Incubate at room temperature with mechanical shaking at 750 rpm for 20 minutes. […] 10. Add 100 μL of Stop Solution (1N HCl) into each well. [0173] 11. Gently mix for 10 seconds to ensure a complete mixing. [0174] 12. Read optical density at A450 nm.
(§2) Cross-reactivity of rabbit monoclonal anti-mouse/human Id3 (clone #6-1) and commercial rabbit polyclonal antibody (Santa Cruz Biotechnology) were determined according to the procedures of Example 9.

Human Id1: Histidine [8] = molecular target: T2, Human Id1: Histidine; assay: ELISA, Ab 0.025 µg/ml
Protocol: as §1, §2

Human Id3: Histidine [9] = molecular target: T3, Human Id3: Histidine; assay: ELISA, Ab 0.025 µg/ml
Protocol: as §1, §2

Mouse Id2: Histidine [10] = molecular target: T4, Mouse Id2: Histidine; assay: ELISA, Ab 0.025 µg/ml
Protocol: as §1, §2

Mouse Id1: Histidine [11] = molecular target: T5, Mouse Id1: Histidine; assay: ELISA, Ab 0.025 µg/ml
Protocol: as §1, §2

Mouse Id3: Histidine [12] = molecular target: T6, Mouse Id3: Histidine; assay: ELISA, Ab 0.025 µg/ml
Protocol: as §1, §2

Human Id2: Histidine [13] = molecular target: T1, Human Id2: Histidine; assay: ELISA, Ab 0.050 µg/ml
Human Id1: Histidine [14] = molecular target: T2, Human Id1: Histidine; assay: ELISA, Ab 0.050 µg/ml
Human Id3: Histidine [15] = molecular target: T3, Human Id3: Histidine; assay: ELISA, Ab 0.050 µg/ml
Mouse Id2: Histidine [16] = molecular target: T4, Mouse Id2: Histidine; assay: ELISA, Ab 0.050 µg/ml
Mouse Id3: Histidine [17] = molecular target: T6, Mouse Id3: Histidine; assay: ELISA, Ab 0.050 µg/ml

B1: rabbit monoclonal anti-mouse/human Id3, clone #BCH-4/#6-1 (antibody, V domains shown)
VH: QSVEESGGRLVTPGTPLTLTCTASGFSLSNVYIHWVRQAPGKGLEWIGYISDGDTARYATWAKGRFTISKTSSTTVNLKMTSLTTEDTATYFCARQGFNIWGPGTLVTVSL
VL: AVLTQTPSPVSAAVGGTVSISCQSSQSVWNNNWLSWFQQKPGQPPKLLIYETSKLESGVPSRFKGSGSGTQFTLTISDVQCDDAATYYCLGGYWTTSDNNVFGGGTEVVVK
notes: Rabbit IgG from a rabbit hybridoma; also called m/h Id3 MoAb 6-1
- A450 (Human Id2: Histidine [1]): 0.064 A450
- A450 (Human Id1: Histidine [2]): 0.058 A450
- A450 (Human Id3: Histidine [3]): 0.047 A450
- A450 (Mouse Id2: Histidine [4]): 0.058 A450
- A450 (Mouse Id1: Histidine [5]): 0.061 A450
- A450 (Mouse Id3: Histidine [6]): 0.048 A450
- A450 (Human Id2: Histidine [7]): 0.088 A450
- A450 (Human Id1: Histidine [8]): 0.073 A450
- A450 (Human Id3: Histidine [9]): 1.01 A450
- A450 (Mouse Id2: Histidine [10]): 0.076 A450
- A450 (Mouse Id1: Histidine [11]): 0.072 A450
- A450 (Mouse Id3: Histidine [12]): 1.15 A450
- A450 (Human Id2: Histidine [13]): 0.086 A450
- A450 (Human Id1: Histidine [14]): 0.091 A450
- A450 (Human Id3: Histidine [15]): 1.52 A450
- A450 (Mouse Id2: Histidine [16]): 0.093 A450
- A450 (Mouse Id3: Histidine [17]): 1.72 A450
